Fewer inactive variants are shown than the library holds.
B1: TPR 5TU (parent)
chain: GGAUCUUCUCGAUCUAACAAAAAAGACAAAUCUGCCACAAAGCUUGAGAGCAUCUUCGGAUGCAGAGGCGGCAGCCUUCGGUGGCGCGAUAGCGCCAACGUUCUCAACUAUGACACGCAAAACGCGUGCUCCGUUGAAUGGAGUUUAUCAUG

Variants of: B1
Assay: polymerase ribozyme fitness, log enrichment relative to wild type (log ratio); higher = more active; in vitro selection for triplet polymerase activity
Summary of the method: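 Fitness measures genotype enrichment against wild-type enrichment on a logarithmic scale, with inverse-variance-weighted averaging of replicates. The logarithm is base 2, and genotypes were kept only with ≥10 input reads and ≥1 read per output in Illumina sequencing. The sequenced libraries came from one triplicate in vitro selection round, including frozen incubation at −7 °C, of PCR-built, transcribed mutant libraries of each subunit of a heterodimeric triplet polymerase ribozyme.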

**Q.** For U56A G74A A138G, which “polymerase ribozyme fitness (log ratio)” value is on record?
**A.** Its value is ≤ -4.2.

**Q.** Which “polymerase ribozyme fitness (log ratio)” value does the source give for C57A G65A here?
**A.** Its value is -0.56.

**Q.** With U56A G59U C63G C87U as the variant, how does the “polymerase ribozyme fitness (log ratio)” value read?
**A.** The value was 1.72.

**Q.** For C57U G126A A138U, which “polymerase ribozyme fitness (log ratio)” value is on record?
**A.** The value was -3.43.

**Q.** Which “polymerase ribozyme fitness (log ratio)” value does the source give for C57A G74U G88U A115G A119U U145G C149G here?
**A.** Its value is ≤ -4.2.

**Q.** For U56C G74U C76U G84U C125G A138C, which “polymerase ribozyme fitness (log ratio)” value is on record?
**A.** The value was ≤ -4.2.

**Q.** With G58C A150U as the variant, how does the “polymerase ribozyme fitness (log ratio)” value read?
**A.** Its value is 1.46.

**Q.** Which “polymerase ribozyme fitness (log ratio)” value does the source give for G59A C75G A122U C129A G143U here?
**A.** Its value is -3.5.

**Q.** For G58C G83A C93U, which “polymerase ribozyme fitness (log ratio)” value is on record?
**A.** The value was -2.03.

**Q.** Which “polymerase ribozyme fitness (log ratio)” value does the source give for C57G G71U C72G G84U G133U A137U here?
**A.** The value was ≤ -4.2.

**Q.** Which “polymerase ribozyme fitness (log ratio)” value does the source give for G58A C87G C116A A147C U151A here?
**A.** The value was ≤ -4.2.

**Q.** Which “polymerase ribozyme fitness (log ratio)” value does the source give for G58C C85U G117U here?
**A.** Its value is -0.00983.

**Q.** For U56A G88A, which “polymerase ribozyme fitness (log ratio)” value is on record?
**A.** The value was -3.78.

**Q.** With G58A C96U as the variant, how does the “polymerase ribozyme fitness (log ratio)” value read?
**A.** Its value is 0.538.

**Q.** With U56A G126U as the variant, how does the “polymerase ribozyme fitness (log ratio)” value read?
**A.** The value was 0.137.

**Q.** Which “polymerase ribozyme fitness (log ratio)” value does the source give for U56C G83A C87G C123U G141A here?
**A.** Its value is ≤ -4.2.

**Q.** Which “polymerase ribozyme fitness (log ratio)” value does the source give for C57G G81U C85G C96U U134A here?
**A.** The value was -4.03.

**Q.** For G58A C95U C96G, which “polymerase ribozyme fitness (log ratio)” value is on record?
**A.** The value was -1.01.

**Q.** For C57U C87G G88U C95G C116U C123A U134C, which “polymerase ribozyme fitness (log ratio)” value is on record?
**A.** Its value is ≤ -4.2.

**Q.** For C57G C76U G88A G92U, which “polymerase ribozyme fitness (log ratio)” value is on record?
**A.** Its value is -3.96.

**Q.** With G58A C72U C76G C99G A110C as the variant, how does the “polymerase ribozyme fitness (log ratio)” value read?
**A.** Its value is ≤ -4.2.

**Q.** Which “polymerase ribozyme fitness (log ratio)” value does the source give for U56A A73G C76U here?
**A.** Its value is 0.764.

**Q.** For C57U C75A G88C G133U, which “polymerase ribozyme fitness (log ratio)” value is on record?
**A.** The value was ≤ -4.2.

**Q.** Which “polymerase ribozyme fitness (log ratio)” value does the source give for C57G C96G U104G here?
**A.** Its value is -4.16.

**Q.** With C57G A73G C87G A98U C125G G141A as the variant, how does the “polymerase ribozyme fitness (log ratio)” value read?
**A.** Its value is ≤ -4.2.

**Q.** Which “polymerase ribozyme fitness (log ratio)” value does the source give for G59A A106G U134A here?
**A.** Its value is -2.03.

**Q.** With G58U G126U A150C as the variant, how does the “polymerase ribozyme fitness (log ratio)” value read?
**A.** The value was -4.03.

**Q.** Which “polymerase ribozyme fitness (log ratio)” value does the source give for C57A C95A C96U G141A here?
**A.** The value was -4.07.

**Q.** For U56G G83A C87G C116G G140C, which “polymerase ribozyme fitness (log ratio)” value is on record?
**A.** The value was ≤ -4.2.

**Q.** Which “polymerase ribozyme fitness (log ratio)” value does the source give for C57A G59A G84U A97U C118G here?
**A.** Its value is -3.12.

**Q.** With G59A A60C G126A as the variant, how does the “polymerase ribozyme fitness (log ratio)” value read?
**A.** The value was -0.62.

**Q.** For C57A C72U C99A C103G G140C, which “polymerase ribozyme fitness (log ratio)” value is on record?
**A.** Its value is ≤ -4.2.

**Q.** For G59A A142G, which “polymerase ribozyme fitness (log ratio)” value is on record?
**A.** The value was -0.65.

**Q.** For U56C U78G C85U A89G, which “polymerase ribozyme fitness (log ratio)” value is on record?
**A.** The value was ≤ -4.2.

**Q.** With G58C G140C as the variant, how does the “polymerase ribozyme fitness (log ratio)” value read?
**A.** The value was -4.02.

**Q.** For G58A G83A C87U U101G G141C, which “polymerase ribozyme fitness (log ratio)” value is on record?
**A.** The value was -3.39.

**Q.** With G59A C76G as the variant, how does the “polymerase ribozyme fitness (log ratio)” value read?
**A.** Its value is ≤ -4.2.

**Q.** For C57G A113G, which “polymerase ribozyme fitness (log ratio)” value is on record?
**A.** The value was -3.44.

**Q.** For C57U G117C A122G, which “polymerase ribozyme fitness (log ratio)” value is on record?
**A.** The value was 0.204.

**Q.** With G58C A60G G67A C69A G92U G112A G143C as the variant, how does the “polymerase ribozyme fitness (log ratio)” value read?
**A.** Its value is ≤ -4.2.

**Q.** With C57G C69A as the variant, how does the “polymerase ribozyme fitness (log ratio)” value read?
**A.** Its value is -2.56.

**Q.** For G58C A73G C85G, which “polymerase ribozyme fitness (log ratio)” value is on record?
**A.** Its value is -2.21.

**Q.** For G58U G86A C87A, which “polymerase ribozyme fitness (log ratio)” value is on record?
**A.** The value was ≤ -4.2.

**Q.** With U55G U61G C76U C87A U101G U134G G136U as the variant, how does the “polymerase ribozyme fitness (log ratio)” value read?
**A.** The value was ≤ -4.2.

**Q.** With U56A G58U A119G C131A as the variant, how does the “polymerase ribozyme fitness (log ratio)” value read?
**A.** Its value is -2.04.

**Q.** With C57U C131U as the variant, how does the “polymerase ribozyme fitness (log ratio)” value read?
**A.** The value was 1.26.

**Q.** For G58A G143U, which “polymerase ribozyme fitness (log ratio)” value is on record?
**A.** The value was -1.82.

**Q.** With G58C A89U C95A G126U as the variant, how does the “polymerase ribozyme fitness (log ratio)” value read?
**A.** Its value is -0.892.

**Q.** Which “polymerase ribozyme fitness (log ratio)” value does the source give for C57G C69G U101G C118U here?
**A.** The value was -2.81.

**Q.** For G58A A147U, which “polymerase ribozyme fitness (log ratio)” value is on record?
**A.** Its value is 0.692.

**Q.** For U56A G80A U90A, which “polymerase ribozyme fitness (log ratio)” value is on record?
**A.** Its value is ≤ -4.2.

**Q.** Which “polymerase ribozyme fitness (log ratio)” value does the source give for C57U C96G here?
**A.** Its value is -0.76.

**Q.** Which “polymerase ribozyme fitness (log ratio)” value does the source give for C57U C96U here?
**A.** Its value is -0.201.

**Q.** With U56A C72U C76U C85U as the variant, how does the “polymerase ribozyme fitness (log ratio)” value read?
**A.** The value was -1.17.

**Q.** With U56G U148G as the variant, how does the “polymerase ribozyme fitness (log ratio)” value read?
**A.** Its value is -3.89.

**Q.** With U56C G133U as the variant, how does the “polymerase ribozyme fitness (log ratio)” value read?
**A.** The value was -4.01.

**Q.** For C57G A73U G83C G133U G143C U145C, which “polymerase ribozyme fitness (log ratio)” value is on record?
**A.** Its value is ≤ -4.2.

**Q.** For U56G G92U, which “polymerase ribozyme fitness (log ratio)” value is on record?
**A.** The value was -2.1.

**Q.** With G58C A122U A142G G143A as the variant, how does the “polymerase ribozyme fitness (log ratio)” value read?
**A.** The value was -4.05.

**Q.** For G58U G86A, which “polymerase ribozyme fitness (log ratio)” value is on record?
**A.** The value was -1.55.

**Q.** For U56G U102C, which “polymerase ribozyme fitness (log ratio)” value is on record?
**A.** The value was -1.91.

**Q.** For C57U A91U, which “polymerase ribozyme fitness (log ratio)” value is on record?
**A.** Its value is -3.95.

**Q.** With G58U C105U A106G C149U as the variant, how does the “polymerase ribozyme fitness (log ratio)” value read?
**A.** Its value is 0.147.

**Q.** With C57U C76U A98G as the variant, how does the “polymerase ribozyme fitness (log ratio)” value read?
**A.** Its value is -0.421.

**Q.** With G59A A60C C79G G81A U101G C132A U146A as the variant, how does the “polymerase ribozyme fitness (log ratio)” value read?
**A.** The value was ≤ -4.2.

**Q.** With C57A C69A U127A as the variant, how does the “polymerase ribozyme fitness (log ratio)” value read?
**A.** Its value is ≤ -4.2.

**Q.** With C57A G68C C85A U134A U146C as the variant, how does the “polymerase ribozyme fitness (log ratio)” value read?
**A.** The value was ≤ -4.2.

**Q.** With U56A G81U C93U G141C as the variant, how does the “polymerase ribozyme fitness (log ratio)” value read?
**A.** The value was -1.52.

**Q.** With G58U C95A C149U as the variant, how does the “polymerase ribozyme fitness (log ratio)” value read?
**A.** Its value is -0.828.

**Q.** For G59A A122U, which “polymerase ribozyme fitness (log ratio)” value is on record?
**A.** Its value is 0.148.

**Q.** With C57G C87A U144C as the variant, how does the “polymerase ribozyme fitness (log ratio)” value read?
**A.** Its value is -3.75.

**Q.** For C57G C125A, which “polymerase ribozyme fitness (log ratio)” value is on record?
**A.** Its value is -0.508.

**Q.** With C57G G117U G124C as the variant, how does the “polymerase ribozyme fitness (log ratio)” value read?
**A.** Its value is -1.64.

**Q.** For G58A C149A, which “polymerase ribozyme fitness (log ratio)” value is on record?
**A.** Its value is -3.67.

**Q.** Which “polymerase ribozyme fitness (log ratio)” value does the source give for U56A G84U here?
**A.** Its value is -1.11.

**Q.** For U56A G84C, which “polymerase ribozyme fitness (log ratio)” value is on record?
**A.** The value was -1.66.

**Q.** For U56A C99G G140U, which “polymerase ribozyme fitness (log ratio)” value is on record?
**A.** Its value is -3.99.

**Q.** Which “polymerase ribozyme fitness (log ratio)” value does the source give for G58A U61G here?
**A.** Its value is -1.49.

**Q.** Which “polymerase ribozyme fitness (log ratio)” value does the source give for G58C A97U here?
**A.** The value was -0.712.

**Q.** For C57G C93A A113G A120C, which “polymerase ribozyme fitness (log ratio)” value is on record?
**A.** Its value is -4.13.

**Q.** With G58C A106C as the variant, how does the “polymerase ribozyme fitness (log ratio)” value read?
**A.** Its value is 0.355.

**Q.** For G58C G94A, which “polymerase ribozyme fitness (log ratio)” value is on record?
**A.** Its value is -0.64.

**Q.** For U56G G84U, which “polymerase ribozyme fitness (log ratio)” value is on record?
**A.** Its value is -2.16.

**Q.** With U56G G65C G67C C85A C93G C118U C149A as the variant, how does the “polymerase ribozyme fitness (log ratio)” value read?
**A.** The value was ≤ -4.2.
